Experimental data reported in US20240218011A1 (FIREFLY BIO, published 2024).

Target: human LPAM1 (human, UniProt P26010 20-798)
Experiment: cell-based or functional assay

Sequence of human LPAM1 (P26010 20-798): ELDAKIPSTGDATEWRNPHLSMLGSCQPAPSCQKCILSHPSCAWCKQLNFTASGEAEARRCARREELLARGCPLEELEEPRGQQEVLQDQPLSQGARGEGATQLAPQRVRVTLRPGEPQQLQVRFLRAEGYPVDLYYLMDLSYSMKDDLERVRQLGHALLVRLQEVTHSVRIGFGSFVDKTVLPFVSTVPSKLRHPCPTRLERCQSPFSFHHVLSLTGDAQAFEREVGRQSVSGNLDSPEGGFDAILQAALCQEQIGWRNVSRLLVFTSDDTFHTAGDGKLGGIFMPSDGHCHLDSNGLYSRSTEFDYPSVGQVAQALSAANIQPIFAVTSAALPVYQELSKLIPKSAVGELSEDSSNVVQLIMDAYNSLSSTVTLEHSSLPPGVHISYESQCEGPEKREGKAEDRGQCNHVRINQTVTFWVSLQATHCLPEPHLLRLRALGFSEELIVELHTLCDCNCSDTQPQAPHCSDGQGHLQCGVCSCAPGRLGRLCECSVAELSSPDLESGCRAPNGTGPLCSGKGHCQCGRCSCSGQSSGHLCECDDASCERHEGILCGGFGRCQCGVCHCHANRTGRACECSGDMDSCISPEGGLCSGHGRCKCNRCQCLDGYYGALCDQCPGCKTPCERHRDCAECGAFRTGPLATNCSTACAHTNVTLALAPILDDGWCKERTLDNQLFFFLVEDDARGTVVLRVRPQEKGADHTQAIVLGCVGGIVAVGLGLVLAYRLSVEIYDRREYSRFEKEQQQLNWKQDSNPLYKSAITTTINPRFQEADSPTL

- Fold induction Anti-LPAM1 conjugate at 0.0064 nM; luciferase reporter: 1 fold
- Fold induction Anti-LPAM1 conjugate at 0.032 nM; luciferase reporter: 1 fold
- Fold induction Anti-LPAM1 conjugate at 0.16 nM; luciferase reporter: 20 fold
- Fold induction Anti-LPAM1 conjugate at 0.8 nM; luciferase reporter: 121 fold
- Fold induction Anti-LPAM1 conjugate at 4 nM; luciferase reporter: 147 fold
- Fold induction Anti-LPAM1 conjugate at 20 nM; luciferase reporter: 177 fold
- Fold induction Anti-LPAM1 conjugate at 100 nM; luciferase reporter: 240 fold
- Fold induction Anti-LPAM1 conjugate at 500 nM; luciferase reporter: 361 fold
B1: Anti-LPAM-1-Linker 1-Bud (vedolizumab conjugated to GR agonist budesonide with Linker 1) (antibody, human IgG1, kappa, V domains shown)
VH: QVQLVQSGAEVKKPGASVKVSCKGSGYTFTSYWMHWVRQAPGQRLEWIGEIDPSESNTNYNQKFKGRVTLTVDISASTAYMELSSLRSEDTAVYYCARGGYDGWDYAIDYWGQGTLVTVSS
VL: DVVMTQSPLSLPVTPGEPASISCRSSQSLAKSYGNTYLSWYLQKPGQSPQLLIYGISNRFSGVPDRFSGSGSGTDFTLKISRVEAEDVGVYYCLQGTHQPYTFGQGTKVEIKR
modifications: budesonide attached through Linker 1; residues and chain not stated
